Target: cyno CD98hc (cynomolgus monkey)
Test: SPR (Biacore)

“LLB2.C.1 (from UniProt P0DOX5 233-449) (Fc fusion)” showed a Kd of 1500 nM.

From patent publication US20250145729A1
